Patent CN115490770A (GMAX BIOPHARM HANGZHOU CO LTD, dated 2022)

Assays:
人CD3 = target: T1, 人CD3 (human, UniProt P07766 23-207); experiment: flow cytometry (FACS) on Jurkat cells, anti-human IgG Fc PE secondary
T1 construct: whole, on cells; Natural CD3 complex on Jurkat T cells (and CIK cells); also called Jurkat细胞表面人CD3分子

人ETA (内皮素受体A) = target: T2, 人ETA (内皮素受体A) (human, UniProt P25101 21-427); experiment: flow cytometry (FACS) on CHO-ETA cells, anti-human IgG Fc PE secondary
T2 construct: whole, on cells; The plasmid's ETA construct is not described further; also called CHO-ETA; CHO-ETA-EGFP
T2 sequence (looked up): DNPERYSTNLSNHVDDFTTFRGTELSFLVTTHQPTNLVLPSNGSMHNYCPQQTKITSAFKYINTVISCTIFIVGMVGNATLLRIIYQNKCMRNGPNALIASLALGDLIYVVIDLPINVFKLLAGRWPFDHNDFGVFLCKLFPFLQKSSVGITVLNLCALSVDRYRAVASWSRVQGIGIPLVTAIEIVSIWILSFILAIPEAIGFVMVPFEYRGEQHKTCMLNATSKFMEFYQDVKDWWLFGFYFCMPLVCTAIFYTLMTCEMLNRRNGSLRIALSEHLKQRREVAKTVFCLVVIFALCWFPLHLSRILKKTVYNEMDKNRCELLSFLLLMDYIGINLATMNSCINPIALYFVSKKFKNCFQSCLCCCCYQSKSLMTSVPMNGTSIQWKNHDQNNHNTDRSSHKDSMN

T1 sequence (P07766 23-207): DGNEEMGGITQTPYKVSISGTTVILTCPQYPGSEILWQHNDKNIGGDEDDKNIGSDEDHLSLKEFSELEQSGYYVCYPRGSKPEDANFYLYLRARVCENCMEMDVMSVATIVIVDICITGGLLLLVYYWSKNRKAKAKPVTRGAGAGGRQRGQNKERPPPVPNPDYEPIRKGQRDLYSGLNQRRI

B1: αETA(L5H5,SEQ NO ID:19+SEQ NO ID:20)/αCD3(L3H3,SEQ NO ID:15+SEQ NO ID:16)双特异性抗体 (bispecific antibody)
chain 1: QVTLKESGPTLVKPTQTLTLTCTFSGFSLTTSGLGVAWIRQPPGKALEWLAHIWSDGDTRYYPALKNRLTITKDTSKNQVVLTMTNMDPVDTATYYCAHMKDDSLYFDNWGQGTLVTVSS
chain 2: EIVLTQSPDFQSVTPKEKVTITCRASQNIGTSIHWYQQKPDQSPKLLIKYASKSISGVPSRFSGSGSGTDFTLTINSLEAEDAATYYCQHSYSFPWTFGQGTKVEIK
chain 3: EAVVTQEPSLTVSPGGTVTLTCRSSTGAVTTSNYANWVQQKPGQAPRGLIGGTNKRAPWTPARFSGSLLGGKAALTLSGAQPEDEAEYYCALWYSNLWVFGGGTKLTVL
chain 4: EVQLVESGGGLVQPGGSLRLSCAASGFTFNTYAMNWVRQAPGKGLEWVGRIRSKYNNYATYYADSVKDRFTISRDDSKNTLYLQMNSLRAEDTAVYYCVRHGNFGNSYVSWFAYWGQGTLVTVSS
EC50 (人CD3): 10.7 nM | EC50 (人ETA (内皮素受体A)): 3.51 nM
